# Experimental data published in patent publication US20260167699A1 (Chugai, published 2026).
# Biological target: T1, FcγRIIIa (human, UniProt P08637 17-208)
# T1 construct: extracellular domain; also called 3a; FcγRIIIa extracellular domain
# Assay: SPR (Biacore);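 also: antibody variants captured on an SPR sensor chip, with FcγRIIIa passed over as analyte in HBS-EP+ buffer at 25 °C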
# T1 sequence (P08637 other isoform, or with tags, fused parts or gaps): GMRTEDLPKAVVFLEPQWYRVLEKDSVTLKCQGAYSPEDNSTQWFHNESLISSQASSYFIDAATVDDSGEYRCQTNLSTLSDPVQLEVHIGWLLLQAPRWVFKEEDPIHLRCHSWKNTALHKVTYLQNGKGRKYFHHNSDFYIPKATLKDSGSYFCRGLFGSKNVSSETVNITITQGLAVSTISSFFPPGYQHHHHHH
row,He/Con 3a,Binder
1,77.8 % of GpH7-A5/GpH7-B3/GpL16-k0,"GpH7-A5/GpH7-B3 variant L235_15Y/GpL16-k0 (antibody, human IgG1, kappa, copies: 1 + 1 + 2) heavy 1: not shown heavy 2: not shown light: DIVMTQSPLSLPVTPGEPASISCQASESLVHSNRNTYLHWYLQKPGQSPQLLIYKVSNRFSGVPDRFSGSGSGTDFTLKISRVEAEDVGVYYCSQNTHVPPTFGQGTKVEIERTVAAPSVFIFPPSDEQLKSGTASVVCLLNNFYPREAKVQWKVDNALQSGNSQESVTEQDSKDSTYSLSSTLTLSKADYEKHKVYACEVTHQGLSSPVTKSFNRGEC"
2,57.1 % of GpH7-A5/GpH7-B3/GpL16-k0,"GpH7-A5/GpH7-B3 variant L235_16H/GpL16-k0 (antibody, human IgG1, kappa, copies: 1 + 1 + 2) heavy 1: not shown heavy 2: not shown light: DIVMTQSPLSLPVTPGEPASISCQASESLVHSNRNTYLHWYLQKPGQSPQLLIYKVSNRFSGVPDRFSGSGSGTDFTLKISRVEAEDVGVYYCSQNTHVPPTFGQGTKVEIERTVAAPSVFIFPPSDEQLKSGTASVVCLLNNFYPREAKVQWKVDNALQSGNSQESVTEQDSKDSTYSLSSTLTLSKADYEKHKVYACEVTHQGLSSPVTKSFNRGEC"
3,65 % of GpH7-A5/GpH7-B3/GpL16-k0,"GpH7-A5/GpH7-B3 variant L235_18N/GpL16-k0 (antibody, human IgG1, kappa, copies: 1 + 1 + 2) heavy 1: not shown heavy 2: not shown light: DIVMTQSPLSLPVTPGEPASISCQASESLVHSNRNTYLHWYLQKPGQSPQLLIYKVSNRFSGVPDRFSGSGSGTDFTLKISRVEAEDVGVYYCSQNTHVPPTFGQGTKVEIERTVAAPSVFIFPPSDEQLKSGTASVVCLLNNFYPREAKVQWKVDNALQSGNSQESVTEQDSKDSTYSLSSTLTLSKADYEKHKVYACEVTHQGLSSPVTKSFNRGEC"
4,68.1 % of GpH7-A5/GpH7-B3/GpL16-k0,"GpH7-A5/GpH7-B3 variant L235_19Q/GpL16-k0 (antibody, human IgG1, kappa, copies: 1 + 1 + 2) heavy 1: not shown heavy 2: not shown light: DIVMTQSPLSLPVTPGEPASISCQASESLVHSNRNTYLHWYLQKPGQSPQLLIYKVSNRFSGVPDRFSGSGSGTDFTLKISRVEAEDVGVYYCSQNTHVPPTFGQGTKVEIERTVAAPSVFIFPPSDEQLKSGTASVVCLLNNFYPREAKVQWKVDNALQSGNSQESVTEQDSKDSTYSLSSTLTLSKADYEKHKVYACEVTHQGLSSPVTKSFNRGEC"
5,73.8 % of GpH7-A5/GpH7-B3/GpL16-k0,"GpH7-A5/GpH7-B3 variant L235_20W/GpL16-k0 (antibody, human IgG1, kappa, copies: 1 + 1 + 2) heavy 1: not shown heavy 2: not shown light: DIVMTQSPLSLPVTPGEPASISCQASESLVHSNRNTYLHWYLQKPGQSPQLLIYKVSNRFSGVPDRFSGSGSGTDFTLKISRVEAEDVGVYYCSQNTHVPPTFGQGTKVEIERTVAAPSVFIFPPSDEQLKSGTASVVCLLNNFYPREAKVQWKVDNALQSGNSQESVTEQDSKDSTYSLSSTLTLSKADYEKHKVYACEVTHQGLSSPVTKSFNRGEC"
6,81.3 % of GpH7-A5/GpH7-B3/GpL16-k0,"GpH7-A5/GpH7-B3 variant L328_02A/GpL16-k0 (antibody, human IgG1, kappa, copies: 1 + 1 + 2) heavy 1: not shown heavy 2: not shown light: DIVMTQSPLSLPVTPGEPASISCQASESLVHSNRNTYLHWYLQKPGQSPQLLIYKVSNRFSGVPDRFSGSGSGTDFTLKISRVEAEDVGVYYCSQNTHVPPTFGQGTKVEIERTVAAPSVFIFPPSDEQLKSGTASVVCLLNNFYPREAKVQWKVDNALQSGNSQESVTEQDSKDSTYSLSSTLTLSKADYEKHKVYACEVTHQGLSSPVTKSFNRGEC"
7,80.9 % of GpH7-A5/GpH7-B3/GpL16-k0,"GpH7-A5/GpH7-B3 variant L328_03V/GpL16-k0 (antibody, human IgG1, kappa, copies: 1 + 1 + 2) heavy 1: not shown heavy 2: not shown light: DIVMTQSPLSLPVTPGEPASISCQASESLVHSNRNTYLHWYLQKPGQSPQLLIYKVSNRFSGVPDRFSGSGSGTDFTLKISRVEAEDVGVYYCSQNTHVPPTFGQGTKVEIERTVAAPSVFIFPPSDEQLKSGTASVVCLLNNFYPREAKVQWKVDNALQSGNSQESVTEQDSKDSTYSLSSTLTLSKADYEKHKVYACEVTHQGLSSPVTKSFNRGEC"
8,81.5 % of GpH7-A5/GpH7-B3/GpL16-k0,"GpH7-A5/GpH7-B3 variant L328_04F/GpL16-k0 (antibody, human IgG1, kappa, copies: 1 + 1 + 2) heavy 1: not shown heavy 2: not shown light: DIVMTQSPLSLPVTPGEPASISCQASESLVHSNRNTYLHWYLQKPGQSPQLLIYKVSNRFSGVPDRFSGSGSGTDFTLKISRVEAEDVGVYYCSQNTHVPPTFGQGTKVEIERTVAAPSVFIFPPSDEQLKSGTASVVCLLNNFYPREAKVQWKVDNALQSGNSQESVTEQDSKDSTYSLSSTLTLSKADYEKHKVYACEVTHQGLSSPVTKSFNRGEC"
9,80.8 % of GpH7-A5/GpH7-B3/GpL16-k0,"GpH7-A5/GpH7-B3 variant L328_06M/GpL16-k0 (antibody, human IgG1, kappa, copies: 1 + 1 + 2) heavy 1: not shown heavy 2: not shown light: DIVMTQSPLSLPVTPGEPASISCQASESLVHSNRNTYLHWYLQKPGQSPQLLIYKVSNRFSGVPDRFSGSGSGTDFTLKISRVEAEDVGVYYCSQNTHVPPTFGQGTKVEIERTVAAPSVFIFPPSDEQLKSGTASVVCLLNNFYPREAKVQWKVDNALQSGNSQESVTEQDSKDSTYSLSSTLTLSKADYEKHKVYACEVTHQGLSSPVTKSFNRGEC"
10,86.4 % of GpH7-A5/GpH7-B3/GpL16-k0,"GpH7-A5/GpH7-B3 variant L328_07I/GpL16-k0 (antibody, human IgG1, kappa, copies: 1 + 1 + 2) heavy 1: not shown heavy 2: not shown light: DIVMTQSPLSLPVTPGEPASISCQASESLVHSNRNTYLHWYLQKPGQSPQLLIYKVSNRFSGVPDRFSGSGSGTDFTLKISRVEAEDVGVYYCSQNTHVPPTFGQGTKVEIERTVAAPSVFIFPPSDEQLKSGTASVVCLLNNFYPREAKVQWKVDNALQSGNSQESVTEQDSKDSTYSLSSTLTLSKADYEKHKVYACEVTHQGLSSPVTKSFNRGEC"
11,54.9 % of GpH7-A5/GpH7-B3/GpL16-k0,"GpH7-A5/GpH7-B3 variant L328_10E/GpL16-k0 (antibody, human IgG1, kappa, copies: 1 + 1 + 2) heavy 1: not shown heavy 2: not shown light: DIVMTQSPLSLPVTPGEPASISCQASESLVHSNRNTYLHWYLQKPGQSPQLLIYKVSNRFSGVPDRFSGSGSGTDFTLKISRVEAEDVGVYYCSQNTHVPPTFGQGTKVEIERTVAAPSVFIFPPSDEQLKSGTASVVCLLNNFYPREAKVQWKVDNALQSGNSQESVTEQDSKDSTYSLSSTLTLSKADYEKHKVYACEVTHQGLSSPVTKSFNRGEC"
